Among the test systems are O=C/C=C/c1ccccc1; O=CCc1ccccc1; O=Cc1ccccc1.
Common to all, as to assay: Alcohol dehydrogenase activity of E. coli expressed His-tagged LePEDH on phenylacetaldehyde and related substrates (Km)
Holding throughout (assay type): biochemical, tomato
What all share (conditions): other: substrate specificity of LePEDH, His tag, E. coli BL21-AI

LePEDH (tomato 2-phenylethanol dehydrogenase, full-length cLET2M9) (Solanum lycopersicum), sequence (chain, as listed by the source): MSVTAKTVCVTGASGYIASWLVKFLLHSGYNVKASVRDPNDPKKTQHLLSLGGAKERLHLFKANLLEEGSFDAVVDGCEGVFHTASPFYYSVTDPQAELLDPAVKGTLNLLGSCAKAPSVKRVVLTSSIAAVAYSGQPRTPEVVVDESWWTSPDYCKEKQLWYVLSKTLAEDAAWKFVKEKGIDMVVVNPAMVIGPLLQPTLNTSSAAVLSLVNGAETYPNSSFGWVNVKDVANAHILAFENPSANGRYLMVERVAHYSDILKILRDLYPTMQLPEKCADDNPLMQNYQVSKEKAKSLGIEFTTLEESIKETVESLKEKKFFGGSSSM
Experimental for O=C/C=C/c1ccccc1: (§1) The 2-phenylethanol dehydrogenase coding region of the full-length cLET2M9 was cloned in vector pDEST17 with a His tag and transformed into E. coli BL21-AI cells for inducible expression. Alcohol dehydrogenase activities on phenylacetaldehyde and several related substrates were determined.
Experimental for O=CCc1ccccc1: as §1
Experimental for O=Cc1ccccc1: as §1

Consider “LePEDH (tomato 2-phenylethanol dehydrogenase, full-length cLET2M9) (Solanum lycopersicum)”, for which the Km (in general, the concentration of substrate that gives half-maximal velocity) was 428.9 µM with O=C/C=C/c1ccccc1, 42.3 µM with O=CCc1ccccc1 and 240.1 µM in the data set with O=Cc1ccccc1.

These data come from US8709811B2, “Materials and methods for synthesis of a flavor and aroma volatile in plants” (University of Florida Research Foundation, Inc., priority 2003, dated 2014).
